# What was measured:
# HLA-B*15:01 [1] = test: IEDB peptide-MHC binding, purified MHC/competitive/fluorescence; filed as Kd, often an IC50 or EC50 that approximates it; ≥ and ≤ were set here for values at or beyond the usual limits of such assays
# HLA-B*40:01 = test: as above
# HLA-B*08:01 = test: IEDB peptide-MHC binding, purified MHC/competitive/fluorescence; ≥ and ≤ were set here for values at or beyond the usual limits of such assays
# HLA-A*02:01 [2] = test: IEDB peptide-MHC binding, purified MHC/competitive/fluorescence; filed as Kd, often an IC50 or EC50 that approximates it; ≥ and ≤ were set here for values at or beyond the usual limits of such assays
# HLA-A*02:19 = test: as above
# HLA-A*69:01 = test: as above
# HLA-A*02:16 = test: as above
# HLA-A*02:12 = test: as above
# HLA-A*02:03 = test: as above
# HLA-A*02:11 = test: as above
# HLA-A*30:01 = test: IEDB peptide-MHC binding, purified MHC/competitive/radioactivity; filed as Kd, often an IC50 or EC50 that approximates it; ≥ and ≤ were set here for values at or beyond the usual limits of such assays; details: source organism: Vaccinia virus WR
# HLA-A*01:01 = test: IEDB peptide-MHC binding, purified MHC/direct/fluorescence; filed as Kd, often an IC50 or EC50 that approximates it; ≥ and ≤ were set here for values at or beyond the usual limits of such assays
# HLA-A*80:01 = test: as above
# HLA-A*24:02 = test: IEDB peptide-MHC binding, purified MHC/competitive/fluorescence; ≥ and ≤ were set here for values at or beyond the usual limits of such assays
# HLA-B*18:01 = test: IEDB peptide-MHC binding, purified MHC/competitive/fluorescence; filed as Kd, often an IC50 or EC50 that approximates it; ≥ and ≤ were set here for values at or beyond the usual limits of such assays
# HLA-B*27:03 = test: as above
# HLA-B*51:01 = test: as above
# HLA-A*68:02 = test: as above
# HLA-B*46:01 = test: as above
# HLA-B*39:01 = test: as above
# HLA-A*24:03 = test: as above
# HLA-A*31:01 = test: as above; details: source organism: Bacillus anthracis str. A0488
# HLA-B*57:01 = test: as above
# HLA-A*26:01 = test: as above
# HLA-A*03:01 [3] = test: as above
# HLA-A*29:02 = test: as above
# HLA-B*15:17 = test: as above; details: source organism: Cryptosporidium parvum Iowa II
# HLA-B*07:02 = test: IEDB peptide-MHC binding, purified MHC/competitive/fluorescence; ≥ and ≤ were set here for values at or beyond the usual limits of such assays
# HLA-A*03:01 [4] = test: as above; details: source organism: Zaire ebolavirus
# HLA-B*15:01 [5] = test: as above; details: source organism: Zaire ebolavirus
# HLA-A*02:01 [6] = test: as above; details: source organism: Zaire ebolavirus
# HLA-A*11:01 = test: as above; details: source organism: Zaire ebolavirus
# [7] = source organism: Escherichia coli E22
# [8] = source organism: Human immunodeficiency virus 1
# [9] = source organism: Orthohantavirus andesense
# [10] = source organism: Bacillus anthracis str. A0488
# [11] = source organism: Cryptosporidium parvum Iowa II
# [12] = source organism: Vaccinia virus WR
# [13] = source organism: Burkholderia vietnamiensis G4
# [14] = source organism: Burkholderia pseudomallei 91
# [15] = source organism: Zaire ebolavirus
# [16] = source organism: Bacillus anthracis
# [17] = source organism: Rickettsia sibirica 246
# [18] = source organism: Listeria monocytogenes J0161
sequence,measurement,setting,value
DEIAFGLKL,Kd,HLA-B*15:01 [1]; [7],≥ 20 µM
same,Kd,HLA-B*40:01; [7],3 µM
FLKIKVTAA,IC50,HLA-B*08:01; source organism: Vaccinia virus Copenhagen,15.6 µM
GLGQYIYET,Kd,HLA-A*02:01 [2]; [8],0.14 µM
same,Kd,HLA-A*02:19; [8],0.254 µM
same,Kd,HLA-A*69:01; [8],≥ 20 µM
same,Kd,HLA-A*02:16; [8],0.000819 µM
same,Kd,HLA-A*02:12; [8],0.039 µM
same,Kd,HLA-A*02:03; [8],0.294 µM
same,Kd,HLA-A*02:11; [8],0.0322 µM
HFKPPKFRA,Kd,HLA-A*30:01,0.00886 µM
same,IC50,HLA-B*08:01; source organism: Vaccinia virus,≥ 150 µM
HSDDALFIY,Kd,HLA-A*01:01; [9],≥ 20 µM
same,Kd,HLA-A*80:01; [9],16 µM
IAVARKHHT,IC50,HLA-B*08:01; source organism: Variola virus,≥ 91.6 µM
same,IC50,HLA-A*24:02; source organism: Variola virus,49.4 µM
IEIARTLTL,Kd,HLA-B*40:01; source organism: Salmonella enterica subsp. enterica serovar Typhi,0.0108 µM
IQKGMFVVK,Kd,HLA-B*18:01; [10],≥ 20 µM
same,Kd,HLA-B*27:03; [10],≥ 20 µM
same,Kd,HLA-B*51:01; [10],≥ 20 µM
same,Kd,HLA-A*68:02; [10],≥ 20 µM
same,Kd,HLA-A*02:01 [2]; [10],≥ 20 µM
same,Kd,HLA-B*46:01; [10],≥ 20 µM
same,Kd,HLA-B*39:01; [10],≥ 20 µM
same,Kd,HLA-A*02:19; [10],≥ 20 µM
same,Kd,HLA-A*24:03; [10],≥ 20 µM
same,Kd,HLA-A*31:01,0.0158 µM
same,Kd,HLA-B*57:01; [10],≥ 20 µM
same,Kd,HLA-A*26:01; [10],≥ 20 µM
same,Kd,HLA-A*69:01; [10],≥ 20 µM
same,Kd,HLA-A*02:16; [10],≥ 20 µM
same,Kd,HLA-A*02:12; [10],≥ 20 µM
same,Kd,HLA-A*02:03; [10],≥ 20 µM
same,Kd,HLA-A*02:11; [10],≥ 20 µM
KLYLRPWWH,Kd,HLA-B*18:01; [11],≥ 20 µM
same,Kd,HLA-B*27:03; [11],≥ 20 µM
same,Kd,HLA-B*51:01; [11],≥ 20 µM
same,Kd,HLA-A*68:02; [11],≥ 20 µM
same,Kd,HLA-A*03:01 [3]; [11],0.0044 µM
same,Kd,HLA-B*15:01 [1]; [11],≥ 20 µM
same,Kd,HLA-A*02:01 [2]; [11],≥ 20 µM
same,Kd,HLA-B*46:01; [11],≥ 20 µM
same,Kd,HLA-B*39:01; [11],≥ 20 µM
same,Kd,HLA-A*02:19; [11],≥ 20 µM
same,Kd,HLA-A*24:03; [11],≥ 20 µM
same,Kd,HLA-A*29:02; [11],0.683 µM
same,Kd,HLA-B*57:01; [11],≥ 20 µM
same,Kd,HLA-B*15:17,≥ 20 µM
same,Kd,HLA-A*26:01; [11],≥ 20 µM
same,Kd,HLA-A*69:01; [11],≥ 20 µM
same,Kd,HLA-A*02:16; [11],≥ 20 µM
same,Kd,HLA-A*02:12; [11],≥ 20 µM
same,Kd,HLA-A*02:03; [11],≥ 20 µM
same,Kd,HLA-A*02:11; [11],≥ 20 µM
LPKRSVMLI,IC50,HLA-B*08:01; [12],12.9 µM
same,IC50,HLA-B*07:02; [12],6.45 µM
same,IC50,HLA-A*24:02; [12],≥ 93 µM
PLFKRGWRL,Kd,HLA-B*18:01; [13],≥ 20 µM
same,Kd,HLA-B*27:03; [13],≥ 20 µM
same,Kd,HLA-B*51:01; [13],≥ 20 µM
same,Kd,HLA-A*03:01 [3]; [13],≥ 20 µM
same,Kd,HLA-B*15:01 [1]; [13],≥ 20 µM
same,Kd,HLA-A*02:01 [2]; [13],0.199 µM
same,Kd,HLA-B*46:01; [13],≥ 20 µM
same,Kd,HLA-B*39:01; [13],≥ 20 µM
same,Kd,HLA-A*24:03; [13],≥ 20 µM
same,Kd,HLA-A*29:02; [13],≥ 20 µM
same,Kd,HLA-B*57:01; [13],≥ 20 µM
same,Kd,HLA-A*26:01; [13],≥ 20 µM
same,Kd,HLA-A*02:11; [13],0.0285 µM
RAYAAMHLW,Kd,HLA-B*27:03; [14],≥ 20 µM
same,Kd,HLA-A*68:02; [14],≥ 20 µM
same,Kd,HLA-A*03:01 [3]; [14],≥ 20 µM
same,Kd,HLA-A*02:01 [2]; [14],≥ 20 µM
same,Kd,HLA-B*46:01; [14],≥ 20 µM
same,Kd,HLA-B*39:01; [14],≥ 20 µM
same,Kd,HLA-A*02:19; [14],≥ 20 µM
same,Kd,HLA-B*57:01; [14],0.31 µM
same,Kd,HLA-A*26:01; [14],≥ 20 µM
same,Kd,HLA-A*69:01; [14],≥ 20 µM
same,Kd,HLA-A*02:16; [14],≥ 20 µM
same,Kd,HLA-A*02:12; [14],≥ 20 µM
same,Kd,HLA-A*02:03; [14],≥ 20 µM
same,Kd,HLA-A*02:11; [14],≥ 20 µM
RFKRTSFFL,IC50,HLA-B*08:01; [15],26.5 µM
same,IC50,HLA-A*03:01 [4],≥ 504 µM
same,IC50,HLA-B*15:01 [5],9.58 µM
same,IC50,HLA-A*02:01 [6],≥ 117 µM
same,IC50,HLA-A*11:01,≥ 390 µM
same,IC50,HLA-B*07:02; [15],≥ 215 µM
SVHYKFVTK,Kd,HLA-A*01:01; [16],≥ 20 µM
same,Kd,HLA-A*80:01; [16],≥ 20 µM
VLRACWNEK,Kd,HLA-A*01:01; [16],≥ 20 µM
same,Kd,HLA-A*80:01; [16],≥ 20 µM
YLKKLDDFY,Kd,HLA-B*18:01; [17],≥ 20 µM
same,Kd,HLA-B*27:03; [17],≥ 20 µM
same,Kd,HLA-B*51:01; [17],≥ 20 µM
same,Kd,HLA-A*68:02; [17],≥ 20 µM
same,Kd,HLA-A*03:01 [3]; [17],≥ 20 µM
same,Kd,HLA-A*02:01 [2]; [17],≥ 20 µM
same,Kd,HLA-B*46:01; [17],≥ 20 µM
same,Kd,HLA-B*39:01; [17],≥ 20 µM
same,Kd,HLA-A*02:19; [17],≥ 20 µM
same,Kd,HLA-A*24:03; [17],≥ 20 µM
same,Kd,HLA-B*57:01; [17],≥ 20 µM
same,Kd,HLA-A*26:01; [17],≥ 20 µM
same,Kd,HLA-A*69:01; [17],≥ 20 µM
same,Kd,HLA-A*02:16; [17],≥ 20 µM
same,Kd,HLA-A*02:12; [17],≥ 20 µM
same,Kd,HLA-A*02:11; [17],≥ 20 µM
YNAKRIETV,Kd,HLA-B*18:01; [18],≥ 20 µM
same,Kd,HLA-B*27:03; [18],≥ 20 µM
same,Kd,HLA-B*51:01; [18],≥ 20 µM
same,Kd,HLA-A*03:01 [3]; [18],≥ 20 µM
same,Kd,HLA-B*15:01 [1]; [18],≥ 20 µM
same,Kd,HLA-A*02:01 [2]; [18],≥ 20 µM
same,Kd,HLA-B*46:01; [18],≥ 20 µM
same,Kd,HLA-B*39:01; [18],≥ 20 µM
same,Kd,HLA-A*02:19; [18],≥ 20 µM
same,Kd,HLA-A*24:03; [18],≥ 20 µM
same,Kd,HLA-A*29:02; [18],≥ 20 µM
same,Kd,HLA-B*57:01; [18],≥ 20 µM
same,Kd,HLA-A*26:01; [18],≥ 20 µM
same,Kd,HLA-A*02:12; [18],≥ 20 µM
same,Kd,HLA-A*02:03; [18],≥ 20 µM
same,Kd,HLA-A*02:11; [18],0.239 µM

# From the Immune Epitope Database (IEDB)
